{"source": "patent US7211434B2", "about": "“Primitive neural stem cells and method for differentiation of stem cells to neural cells” (priority 2000, dated 2007)", "molecules": {"B1": {"name": "FGF2: fibroblast growth factor family growth factor, 10 ng/ml with heparin (protein)", "chain": "PALPEDGGAAFPPGHFKDPKRLYCKNGGFFLRIHPDGRVDGVREKSDPHVKLQLQAEERGVVSIKGVCANRYLAMKEDGRLLASKCVTEECFFFERLESNNYNTYRSRKYSSWYVALKRTGQYKLGSKTGPGQKAILFLPMSAKS"}, "B2": {"name": "CNTT: another member of the cytokine family of signaling molecules to which LIF belongs (protein, UniProt P26441 1-200, looked up)", "Ciliary neurotrophic factor": "MAFTEHSPLTPHRRDLCSRSIWLARKIRSDLTALTESYVKHQGLNKNINLDSADGMPVASTDQWSELTEAERLQENLQAYRTFHVLLARLLEDQQVHFTPTEGDFHQAIHTLLLQVAAFAYQIEELMILLEYKIPRNEADGMPINVGDGGLFEKKLWGLKVLQELSQWTVRSIHDLRFISSHQTGIPARGSHYIANNKKM"}, "B3": {"name": "BMP4: Human recombinant BMP4 protein provided by Genetics Institute Inc. (protein)", "chain": "SPKHHPQRSRKKNKNCRRHSLYVDFSDVGWNDWIVAPPGYQAFYCHGDCPFPLADHLNSTNHAIVQTLVNSVNSSIPKACCVPTELSAISMLYLDEYDKVVLKNYQEMVVEGCGCR"}, "B4": {"name": "Noggin: BMP protein antagonist; human recombinant Noggin protein provided by Regeneron Pharmaceuticals Inc. (protein)", "chain": "QHYLHIRPAPSDNLPLVDLIEHPDPIFDPKEKDLNETLLRSLLGGHYDPGFMATSPPEDRPGGGGGAAGGAEDLAELDQLLRQRPSGAMPSEIKGLEFSEGLAQGKKQRLSKKLRRKLQMWLWSQTFCPVLYAWNDLGSRFWPRYVKVGSCFSKRSCSVPEGMVCKPSKSVHLTVLRWRCQRRGGQRCGWIPIQYPIISECKCSC"}, "B5": {"name": "mCer-1: mouse Cerberus-like protein in supernatant from transiently transfected Neuro2a cells (protein)", "chain": "DLCVDGCQSQGSLSFPLLERGRRDLHVANHEEAEDKPDLFVAVPHLMGTSLAGEGQRQRGKMLSRLGRFWKKPETEFYPPRDVESDHVSSGMQAVTQPADGRKVERSPLQEEAKRFWHRFMFRKGPAFQGVILPIKSHEVHWETCRTVPFNQTIAHEDCQKVVVQNNLCFGKCSSIRFPGEGADAHSFCSHCSPTKFTTVHLMLNCTSPTPVVKMVMQVEECQCMVKTERGEERLLLAGSQGSFIPGLPASKTNP"}}, "assay_type_in_all_cases": "cell-based, mouse", "key": {"[1]": {"system": "ES cells", "assay": "Primary neural sphere colony formation from ES cells in serum-free low-density culture, 7 days", "settings": "for primary colony formation, factor alone: ES cells at relatively low cell densities, serum-free, 7 days in vitro", "procedure": "For passaging ES cells, cultures were disaggregated with 0.05% trypsin dissolved in Tris-saline/EDTA for 5–10 minutes, mechanically dissociated, centrifuged and resuspended in culture medium.\nPassaged ES cells were washed (2 times), centrifuged and resuspended in chemically defined serum-free media (Reynolds et al., 1992; Reynolds & Weiss, 1996) composed of a 1:1 mixture of Dulbecco's modified Eagle's medium (DMEM GIBCO) and F-12 nutrient (GIBCO) including 0.6% glucose (Sigma), 2 mM glutamine (GIBCO), 3 mM sodium bicarbonate (Sigma), and 5 mM HEPFS buffer (Sigma). A defined hormone and salt mixture (Sigma) that included insulin (25 (g/ml), transferrin (100 (g/ml), progestrone (20 nM), putrescine (60 (M), and selenium chloride (30 nM) was used instead of serum. ES cells were plated at various cell densities in 24-well culture plates (Nunclon) in the presence of either LIF (1000 U/ml), LIF+FGF2 (10 ng/ml; Upstate Biotech or Sigma) and 2 (g/ml heparin (Sigma), or in the absence of any exogenous growth factors. For short term (4–24 hours) neural differentiation, ES cells were plated in identical culture conditions in 24-well culture plates (Nunclon) that were precoated with poly-L-ornithine (15 μg/ml, Gibco).\nLimiting dilution analysis was performed as previously described (Bellows and Aubin, 1989; Tropepe et al., 1999). ES cells were plated in 24-well plates containing LIF (1000 U/ml). Cell numbers were adjusted to give a starting concentration of 5000 cells/ml from which serial dilutions were made. Final cell dilutions ranged from 1000 cells per well to 1 cell per well in 0.5 ml aliquots. Cultures were left undisturbed for 7 days after which time the fraction of wells not containing sphere colonies for each cell plating density was calculated and those points were plotted against the number of cells plated per well. The number of cells required to form one sphere colony, which reflected the proportion of neural stem cells in the entire population, was then determined from the point at which the regression line crossed the 0.37 level (37%). That is […], where F0 is the fraction of wells without sphere colonies and x is the mean number of cells per well. Based on a Poisson distribution of cells, F0=0.37 corresponds to the dilution at which there is one neural stem cell per well. The linear relationship observed between the cell density and the number of sphere colonies generated (regression coefficient R^2=0.99) can be accounted for by the clonal proliferation of a single rare population of cells.\nNeuro2a (a murine neuroblastoma cell line) cells were seeded at 1×10^6 cells per 100 mm petri dish and transiently transfected with 10 μg of plasmid DNA by means of LipofectAMINE (Gibco) according to the manufacturer's instructions. After 6 hours, the culture media was changed to 10 ml of DMEM+10% FBS (Gibco). Twenty-four hours after transfection, culture media was changed to […] of serum-free media. Seventy-two hours after transfection, cell supernatant was collected and centrifuged to remove cellular debris. Supernatant media was aliquoted and stored at −70° C. […] Thus data from the 20% (v/v) experiments were used for the analysis. The plasmids pCS-V2 (gift from Dr. R. Moon) Hoppler et al., 1996) and pCS-cer-I (a gift from Dr. E. De Robertis) (Belo et al., 1997) were used."}, "[2]": {"system": "ES-derived neural sphere colony cells", "assay": "Subcloning of single ES-derived sphere colonies (secondary colony formation, self-renewal)", "settings": "subcloned single primary colonies; factor alone", "procedure": "Self-renewal of primary colony-formin) ES cells was assessed as previously described (Tropepe et al., 1999). Single sphere colonies were isolated, mechanically dissociated into a single cell suspension in 0.2 ml of serum-free media containing various combinations of LIF (1000 U/ml), […] (10 ng/ml), heparin (2 (g/ml), EGF (20 ng/ml; Upstate Biotech) or B27 supplement (1X) and cultured in 96-well (Nunclon) plates. Secondary sphere colonies were quantified after 7–10 days. A similar procedure was used for repeated passaging experiments. Cell viability after a 7-day culture period (sphere colony assay) or after 4–24 hours (short-term ES differentiation assay) was determined using trypan blue exclusion (1:2 dilution of 0.4% trypan blue; Gibco)."}, "[3]": {"system": "ES derived neural colonies", "assay": "RT-PCR gene expression in ES-derived neural colonies", "settings": "mCer-1 enriched media versus control media; data not shown", "procedure": "Total RNA was isolated using the RNeasy extraction kit (Qiagen) and 1 μg of total RNA was used to synthesize cDNA with oligo-d(T)12-18 primers and MuMLV reverse transcriptase (Superscript II; Boehringer-Mannheim) at 42° C. for 1 hour. The PCR mixture (20 μl) consisted of 1 μl cDNA, 16 pmol 5 ″ primer, 16 pmol 3′ primer, specific for the gene in question 0.2 mM dNTP, 2 μl PCR reaction buffer and 0.8 U of Taq polymerase (Promega). cDNA was amplified in a thermal cycler (Perkin-Elmer) For all primer pairs denaturation for 30 sec at 94° C., annealing for 30 sec and extension at 72° C. was used. The sense and antisense primers, Mg^2 concentration, annealing temperature, extension time and number of PCR cycles were used for the following genes. Emx2: sense 5′-[…]-3′ (SEQ ID. No. 1), antisense 5′ […]-3′(SEQ. ID. No. 2), 1.65 mM Mg^2+, 56° C., 40 sec, 40 cycles. HoxB1: sense 5′-CCGGACCTTCGACTGGATG-3′(SEQ. ID. No. 3). antisense 5′-GGTCAGAGGCATCTCCAGC-3′(SEQ. ID. No. 4), 1.35 mM Mg^2+, 58° C., 40 sec, 40 cycles. Otx1: sense 5′-[…]-3′(SEQ. ID. No. 5). antisense 5′-[…]-3′(SEQ. ID. No. 6), 1.65 mM Mg^2+, 58° C., 40 sec, 40 cycles. Six3: sense 5′-[…]-3′(SEQ. ID. No. 7), antisense 5′-[…]-3′(SEQ. ID. No. 8), 1.35 mM Mg^2+, 56° C., 40 sec, 40 cycles. Brechyury: sense 5′-[…]-3′(SEQ. ID. No. 9), antisense 5′-[…]-3′(SEQ. ID. No. 10), 1.65 mM Mg^2+, 56° C., 1 min. 35 cycles. […]"}}}
{"molecule": "B1", "values": [{"measurement": "primary colony formation, factor alone", "setting": "[1]", "value": "no cell colonies were generated"}, {"measurement": "primary colony formation, factor combined with LIF versus LIF alone", "setting": "[1]; combined with LIF", "value": "non-significant trend toward facilitating LIF-dependent colony formation"}, {"measurement": "secondary neural stem cell colony formation", "setting": "[2]", "value": "dependent upon the presence of exogenous FGF2"}]}
{"molecule": "B2", "values": [{"measurement": "primary colony formation, factor alone", "setting": "[1]", "value": "unable to substitute as a colony-promoting factor"}]}
{"molecule": "B3", "values": [{"measurement": "further effect on number of sphere colonies at higher BMP4 concentration", "setting": "[1]; 5-fold increase in BMP4 concentration, LIF and FGF2", "value": "did not further significantly attenuate the number of sphere colonies generated"}, {"measurement": "decrease in the number of sphere colonies generated", "setting": "[1]; BMP4 5 ng/ml, ES cell cultures containing LIF and FGF2, 20 cells/ul, 7 days", "value": "greater than 50%"}]}
{"molecule": "B4", "values": [{"measurement": "increase in the number of sphere colonies generated", "setting": "[1]; Noggin 100 μg/ml, primary ES cell cultures with LIF+FGF2, 7 days", "value": 50, "unit": "%"}, {"measurement": "further effect on number of sphere colonies with rising Noggin concentration", "setting": "[1]; Noggin from 10 μg/ml to 100 μg/ml", "value": "no additional increase in the numbers of sphere colonies generated"}]}
{"molecule": "B5", "values": [{"measurement": "increase in the numbers of primary neural stem cell colonies", "setting": "[1]; 20% (v/v) mCer-1 supernatant in 0.5 ml serum-free media+LIF, versus backbone vector supernatant", "value": "~50", "unit": "%"}, {"measurement": "Otx-1 expression in ES derived neural colonies", "setting": "[3]", "value": "express Otx-1"}]}
